{"source": "paper doi:10.1101/2021.04.29.441998", "about": "(bioRxiv, 2021)", "binders": {"B1": {"name": "Melbournevirus histone doublet MV-H4-H3 (MEL_368) (natural protein, UniProt A0A097I2D0 1-216, looked up)", "chain": "MSKAGKKVKAQQHGHLADHVSVGETQIPKASTQHLLRKAGSLSAAGDTEVPIRGFVHMKLHKLVQKSLLAMQLAKRKTIMKSDVKKAAELMHLPVFAIPTKDSGAKGSVFLSCRQKGAGSAGTGSETNSQEVRSQMKSTCLIIPKERFRTMAKEISKKEGHDVHIAEAALDMLQVIVESCTVRLLEKALVITYSGKRTRVTSKDIETAFMLEHGPL"}}, "key": {"[1]": {"molecular_target": "T1, Melbournevirus histone doublet MV-H2B-H2A (MEL_369) (Melbournevirus, UniProt A0A097I2B5 1-269)", "T1 sequence (looked up)": "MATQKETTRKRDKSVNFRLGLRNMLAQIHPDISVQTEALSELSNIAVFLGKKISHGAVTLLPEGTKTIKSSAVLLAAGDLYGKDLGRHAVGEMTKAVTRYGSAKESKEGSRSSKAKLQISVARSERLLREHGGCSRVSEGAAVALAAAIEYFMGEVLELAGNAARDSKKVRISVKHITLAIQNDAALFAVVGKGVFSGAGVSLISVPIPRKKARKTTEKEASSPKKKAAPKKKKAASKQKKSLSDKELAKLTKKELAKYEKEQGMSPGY", "assay": "cryo-EM structure"}, "cryo-EM structure": {"molecular_target": "the molecule itself", "assay": "cryo-EM structure"}}}
{"binder": "B1", "values": [{"measurement": "binding result", "setting": "[1]", "result": "binds"}, {"measurement": "binding result", "setting": "cryo-EM structure", "result": "binds"}]}
